Experimental data taken from the DeepSol protein solubility set.

assay: soluble on expression in E. coli; label from the status in PepcDB or PDB records

Row | Sequence | soluble on expression in E. coli
1 | MSLDTHSLRFSKEGTFQITVFSDLHFAEYENTAQGAKQDSRTAGVVRKVLQHEASTQLVVLNGDLISGYGTTSDNATRYLDQVLAPIQALGLPWAVTYGNHDNERFARSRELLDYESRTYPNYSLTRNMGPRDLEAGVSNYYLEVFAAETSHVPEMLLWFFDSRGGAQPHDWVHDSVVQWFIDTNANLTNKYNKAVPSIAFFHIPITATYDFQLYPGVDTSREPGINGEKVWWQGRGYDGKTGHDLKFMAALSATEGMLATFSGHDHDNDWCFKWKSPSATSSSAGLNVCYGRHTGYGGYGGLARGARQILLKQSTIKDEVATWIRLEDGLVPENVTLNATYGQDEEGHHHHHH | not soluble
2 | MSLDTMIASLEQSKKRAEEELSETESIRKEAEKLHKELQQQIIELNSKKDKMLEEAEQQAAEKVKAAMKEAEDIIHELRTIKEEHKSFKDHELINAKKRLEGAMPAFEKSKKPEKPKTQKRDFKPGDEVKVLTFGQKGTLLEKTGGNEWNVQIGILKMKVKEKDLEFIKSAPEPKKEKMITAVKGKDYHVSLELDLRGERYENALSRVEKYLDDAVLAGYPRVSIIHGKGTGALRKGVQDLLKNHRSVKSSRFGEAGEGGSGVTVVELKEGHHHHHH | soluble
3 | MSLDTPDYKRVVLKLSGEALAGNDGFGINPSVVNLISAQIKEVVELGVEVAIVVGGGNIWRGKLGSEMGMDRAAADQMGMLATIMNSLSLQDSLENIGVATRVQTSIDMRQIAEPYIRRKAIRHLEKGRVVIFAGGTGNPYFSTDTAAALRAAEIEADVILMAKNNVDGVYNADPKLDENAKKYEELSYLDVIKEGLEVMDTTASSLSMDNDIPLIVFSFTEQGNNIKRVILGEKIGTTVRGKKEGHHHHHH | soluble
4 | MSLDVRIVDIDSEKPPEAKRCFLLSDVHGRADDIDTKYFNYDFDFLFFAGDMSNKSKYHEIKSFKKWINKMKAKYKIVVAGNHDLVFDREEFNDIIIGNHTAQEIRDLILKDKNIIYLEHEEITIEGIKIFGTPLSNIRIHQAFKEPYEDENDPHEEYLFFSIPDSTNIVLSHGVMKGYLDKEPNSRCKGSYGLRHAIDRVKPDLLICGHMHGCQGHTTHNNTTVILPSFCKRDKFGEETNNPYIIDIIPKLSLRMSIWKKSEKIPKMLKMNFPNVFFYLIFLILKKIWREELFVFEFYHDGEGHHHHHH | soluble
5 | MSLDVSYSFTPLTGYKDSLVNQHVKLPLNYPTIDNHNPKKSTTPNNEFHKKIATTGKIINLPKQSIVPAVSISVYNDMKTIVLTPMEFQLSSIGFQFQNLIIDLPHSTISTNCITFYYHQDHILIDLIDQNYLFITLKIAIDRFILGGQQLTLDNFEEWGYISVPYSFELRSSPFLLKCLDNLNLIVSLKDGGLLHFKRDEELGEINVFNFQEQGTLIPFLGFFGSGKQKDVVLDGVSSNSIVDALQIGGSGVVITLSVNKVLKLWNLDGHQNLSSLTIASDDNTWLPTIPSKYLKSYDQEDGKTIITLFINTKSGDSSKSMFVFKSFELESSNLHDLSDLSFQPELPNSLLFSSDVFYHESNFQNTIWFIQDYEVVGFGTSQLKYYILWKSNTSSILVEYTINPVNGAILSIEISHPNGFEIDENISAYHDAEYYMDRIFDSGNYDSLIVLTSIKILSQHWEIDNEGHHHHHH | soluble
6 | MSLEAKRPEQTRVVVGMSGGVDSSVTALLLKEQGYDVIGIFMKNWDDTDENGVCTATEDYQDVVQVCNQLGIAYYAVNFEKEYWDKVFTYFLEEYKAGRTPNPDVMCNKEIKFKAFLNHALTLGADYVATGHYAQVKNVDGQYQLIRGKDPNKDQTYFLNALSQQQLSRVMFPLGHLEKKEVRAIAERAGLATAKKKDSTGICFIGKRDFKEFLSSYLPAQPGEMQTLDGEVKGTHDGLMYYTLGQRQGLGIGGSGEPWFVIGKNLEKNILYVGQGFHHPGLYSEGLRAIKVNWILRRESDEPFECTAKFRYRQPDQKVTVYPQSDGAVEVLFAEPQRAITPGQAVVFYDGDVCLGGGTIDHVLKKKEDRESAEGHHHHHH | soluble
7 | MSLEDKDLRSIQEVRNLIESANKAQKELAAMSQQQIDTIVKAIADAGYGAREKLAKMAHEETGFGIWQDKVIKNVFASKHVYNYIKDMKTIGMLKEDNEKKVMEVAVPLGVVAGLIPSTNPTSTVIYKTLISIKAGNSIVFSPHPNALKAILETVRIISEAAEKAGCPKGAISCMTVPTIQGTDQLMKHKDTAVILATGGSAMVKAAYSSGTPAIGVGPGNGPAFIERSANIPRAVKHILDSKTFDNGTICASEQSVVVERVNKEAVIAEFRKQGAHFLSDAEAVQLGKFILRPNGSMNPAIVGKSVQHIANLAGLTVPADARVLIAEETKVGAKIPYSREKLAPILAFYTAETWQEACELSMDILYHEGAGHTLIIHSEDKEIIREFALKKPVSRLLVNTPGALGGIGATTNLVPALTLGCGAVGGSSSSDNIGPENLFNIRRIATGVLELEDIRKEENQATSELPVDADALIQSLVEKVLAELKEGHHHHHH | soluble
8 | MSLEEINKIEVIEKSIEENTEKYEIKVKYPSIQGGEKEVTDKINKTIEDYTLNWINDIKLLGEEYSKEYEKAGKEMPKMEAYSLFEAFNTDEVISLPVSYYQYTGGAHGLTTKVSYNYNLKTGKELKLKDLFKEGFDYKSIIDKKVRGDIEKEKELYFDNGALFKGVNENQAYYLNRDGIIVYFQQYEIAPYSSGIREFKIPYGELKEGLIYKLGNEGHHHHHH | soluble
9 | MSLEEPFEIPPVEDTESVAKVDVRVDGIRDDRLSENVRIYLEAMDKNEADGSERHQYLLRENISKALRVFGYYNSQVYFDLQPRSGKKDLLIASVNVGEPVRIDSTDIEISGEAAEDEEFRKLDKNVPAKGAVLEHEIYDDYKSSLEKLARQRGYFDADFPVHELQVMPSTNQGWWHLVFNSGQRYHYGDISFHGSQIREDYLRNILKIQSGDPYLINDVSGMTSDYSSTNWFQSVLVKPTLHEDSKLVDLAVLLRPRKKNSMELGIGYGSDSGPHTQIGWTRPWINSRGHSVRSNLYISSPKQNFEATYKMPLLKNPLNYYYEFSTGFEHEDDTKTDTQSTAATVAALRFWNHPTGWQYSAGLRARYDNFTQADVDEKTLLIYPTATVSRSRISGGTFADRADTISVTVDLGRKMWASDVNFFRIRANAGWIKTFATNHRFLTRGDIGYLHTDEFNRIPPALRFFAGGDRSVRGYGYKKIAPKDSRNGKLVGGSRLATGTLEYQYQVVQDWWAATFFDAGFAANRFSSDELRYGAGVGVRWASPVGPIKFDIATPVRDKDDSKNIQFYIGLGTEEGHHHHHH | not soluble
10 | MSLEEVLKDIERDKEEKKKEIADAASRETAKIEKEREEKIQILQREYENRMREEGSRLYNSIIDKANVEARNIVRMRVQEILDQYGAKADELIKNLAKTKEYDDVLKKMIEVSRKALGPDCIVKVNTADKGRISDGNIKFEDIDPYGGVLATSRDGKIELDLRISSIRRDILERFKVRLYSMIED | not soluble
11 | MSLEFIPRSEQRPIVDTSSTTLDLIYFDLVTLASNEQDIRRLPAHESLYVVLSGQVDIEVDGIMFEAVGRRADIWGGDADSVYAPVGANVRISARGAAAEVAIAGGLCDTRYAAFRITPDEVDAVNVGSSDTHSQRRIVHLLGQRQNGRCGNLLVSELYAGEGCWSGYPPHKHDTEDGDVETRHEELYHYRFQPETGFGSQITYDEDGPVKILMTRNGDTVLVDRGYHPTVTSPGHQGYIFTILVGKHRRGLIQRFDPAHQHLTKTIPGEGHHHHHH | soluble
12 | MSLEHPLQRFFHSMRAKRPFDWVRFQRRDLLLIDHPLCQAVFSRQGAQLLHFQPQGERPLLWCAGEWPALSSAPVRGGIPVCWPWFGSHPNGSEWPQQGWARQREWRLLDAYADESKVVVSWQLDLEDWHVRLDARLGQRLELELCSYHEEDDDCLFSFALQPYWRVGALSRVVVHGMELESARGQRGASRIPGTWIPRGAVKQVLYHPGSLVLEDGGWNRRLRIDKNVSAGSVIWHPGSRPVEQVEPGEAERFLCIGAAGYRPGGLILAPGERMRLSLAAGLQEGHHHHHH | soluble
13 | MSLEIGEKLRNLRIQKNLTQEELGERTDLSKGYISQLERDLSSPSMETFFSILEVLGVTPEQFFSQQPLEQKIVYNEEESTLYYDEEHGYELKWLIPASNEKEMEPVIITFDKNGEYKTFEPSLSETFIYVIDGSIRLTLGEATYIAKKGQTMYYQATEPHQISNNGRGKSRALIVATESYLEGGSHHHHHH | soluble
